The supplement of paper PMC11246515
± gives the standard deviation of the averaged measurements.

Assay: total protein half-life in vivo (active degradation + dilution); higher = more stable protein
[1] = wild type E. coli NCM3722, growth: C-lim chemostat, doubling time 3 h
[2] = wild type E. coli NCM3722, growth: C-lim chemostat, doubling time 6 h
[3] = wild type E. coli NCM3722, growth: C-lim chemostat, doubling time 12 h
[4] = wild type E. coli NCM3722, growth: P-lim chemostat, doubling time 12 h
[5] = E. coli NCM3722 delta-clpP delta-lon delta-hslV, growth: N-lim chemostat, doubling time 6 h
[6] = E. coli NCM3722 delta-clpP, growth: N-lim chemostat, doubling time 6 h
[7] = E. coli NCM3722 delta-hslV, growth: N-lim chemostat, doubling time 6 h
[8] = E. coli NCM3722 delta-lon, growth: N-lim chemostat, doubling time 6 h
[9] = E. coli NCM3722 delta-smpB, growth: N-lim chemostat, doubling time 6 h
[10] = wild type E. coli NCM3722, growth: N-lim chemostat, doubling time 6 h
[11] = wild type E. coli NCM3722, growth: N-lim chemostat, doubling time 12 h
[12] = wild type E. coli NCM3722, growth: P-lim chemostat, doubling time 6 h

Row | Sequence | total protein half-life in vivo [1] [h] | total protein half-life in vivo [2] [h] | total protein half-life in vivo [3] [h] | total protein half-life in vivo [4] [h] | total protein half-life in vivo [5] [h] | total protein half-life in vivo [6] [h] | total protein half-life in vivo [7] [h] | total protein half-life in vivo [8] [h] | total protein half-life in vivo [9] [h] | total protein half-life in vivo [10] [h] | total protein half-life in vivo [11] [h] | total protein half-life in vivo [12] [h]
1 | MTPVKVWQERVEIPTYETGPQDIHPMFLENRVYQGSSGAVYPYGVTDTLSEQKTLKSWQAVWLENDYIKVMILPELGGRVHRAWDKVKQRDFVYHNEVIKPALVGLLGPWISGGIEFNWPQHHRPTTFMPVDFTLEAHEDGAQTVWVGETEPMHGLQVMTGFTLRPDRAALEIASRVYNGNATPRHFLWWANPAVKGGEGHQSVFPPDVTAVFDHGKRAVSAFPIATGTYYKVDYSAGVDISRYKNVPVPTSYMAEKSQYDFVGAWCHDEDGGLLHVANHHIAPGKKQWSWGHSEFGQAWDKSLTDNNGPYIELMTGIFADNQPDFTWLDAYEEKRFEQYFLPYHSLGMVQNASRDAVIKLQRSKRGIEWGLYAISPLNGYRLAIREIGKCNALLDDAVALMPATAIQGVLHGINPERLTIELSDADGNIVLSYQEHQPQALPLPDVAKAPLAAQDITSTDEAWFIGQHLEQYHHASRSPFDYYLRGVALDPLDYRCNLALAMLEYNRADFPQAVAYATQALKRAHALNKNPQCGQASLIRASAYERQGQYQQAEEDFWRAVWSGNSKAGGYYGLARLAARNGNFDAGLDFCQQSLRACPTNQEVLCLHNLLLVLSGRQDNARVQREKLLRDYPLNATLWWLNWFDGRSESALAQWRGLCQGRDVNALMTAGQLINWGMPTLAAEMLNALDCQRTLPLYLQASLLPKAERGELVAKAIDVFPQFVRFPNTLEEVAALESIEECWFARHLLACFYYNKRSYNKAIAFWQRCVEMSPEFADGWRGLAIHAWNKQHDYELAARYLDNAYQLAPQDARLLFERDLLDKLSGATPEKRLARLENNLEIALKRDDMTAELLNLWHLTGQADKAADILATRKFHPWEGGEGKVTSQFILNQLLRAWQHLDARQPQQACELLHAALHYPENLSEGRLPGQTDNDIWFWQAICANAQGDETEATRCLRLAATGDRTINIHSYYNDQPVDYLFWQGMALRLLGEQQTAQQLFSEMKQWAQEMAKTSIEADFFAVSQPDLLSLYGDLQQQHKEKCLMVAMLASAGLGEVAQYESARAELTAINPAWPKAALFTTVMPFIFNRVH | 3.06 ± 0.34 | 4.96 ± 0.015 | 8.56 ± 1.8 | 7.32 | – | – | – | – | – | – | – | –
2 | MTQFNPVDHPHRRYNPLTGQWILVSPHRAKRPWQGAQETPAKQVLPAHDPDCFLCAGNVRVTGDKNPDYTGTYVFTNDFAALMSDTPDAPESHDPLMRCQSARGTSRVICFSPDHSKTLPELSVAALTEIVKTWQEQTAELGKTYPWVQVFENKGAAMGCSNPHPHGQIWANSFLPNEAEREDRLQKEYFAEQKSPMLVDYVQRELADGSRTVVETEHWLAVVPYWAAWPFETLLLPKAHVLRITDLTDAQRSDLALALKKLTSRYDNLFQCSFPYSMGWHGAPFNGEENQHWQLHAHFYPPLLRSATVRKFMVGYEMLAETQRDLTAEQAAERLRAVSDIHFRESGV | 3.38 ± 0.37 | 5.51 ± 0.28 | 12.5 ± 2.4 | 11.7 ± 0.13 | 3.59 ± 0.68 | 3.9 ± 0.27 | 4.65 ± 1 | 5.17 ± 1 | 3.41 ± 0.41 | 4.16 ± 0.59 | 6.05 ± 0.21 | 5.52 ± 0.24
3 | MTQNIRPLPQFKYHPKPLETGAFEQDKTVECDCCEQQTSVYYSGPFYCVDEVEHLCPWCIADGSAAEKFAGSFQDDASIEGVEFEYDEEDEFAGIKNTYPDEMLKELVERTPGYHGWQQEFWLAHCGDFCVFIGYVGWNDIKDRLDEFANLEEDCENFGIRNSDLAKCLQKGGHCQGYLFRCLHCGKLRLWGDFS | – | – | – | – | 5.27 | – | – | – | – | – | – | –
4 | MTQPLFLIGPRGCGKTTVGMALADSLNRRFVDTDQWLQSQLNMTVAEIVEREEWAGFRARETAALEAVTAPSTVIATGGGIILTEFNRHFMQNNGIVVYLCAPVSVLVNRLQAAPEEDLRPTLTGKPLSEEVQEVLEERDALYREVAHIIIDATNEPSQVISEIRSALAQTINC [P0A6E1] | 2.43 ± 0.067 | 5.25 ± 0.8 | 7.3 ± 0.53 | 8.17 ± 0.78 | 4.64 ± 0.55 | 5.49 ± 2.4 | 2.62 ± 0.031 | 2.9 ± 0.18 | 2.42 ± 0.11 | 2.59 ± 0.29 | 3.99 ± 0.094 | 3.9 ± 0.047
5 | MTQTYNADAIEVLTGLEPVRRRPGMYTDTTRPNHLGQEVIDNSVDEALAGHAKRVDVILHADQSLEVIDDGRGMPVDIHPEEGVPAVELILCRLHAGGKFSNKNYQFSGGLHGVGISVVNALSKRVEVNVRRDGQVYNIAFENGEKVQDLQVVGTCGKRNTGTSVHFWPDETFFDSPRFSVSRLTHVLKAKAVLCPGVEITFKDEINNTEQRWCYQDGLNDYLAEAVNGLPTLPEKPFIGNFAGDTEAVDWALLWLPEGGELLTESYVNLIPTMQGGTHVNGLRQGLLDAMREFCEYRNILPRGVKLSAEDIWDRCAYVLSVKMQDPQFAGQTKERLSSRQCAAFVSGVVKDAFILWLNQNVQAAELLAEMAISSAQRRMRAAKKVVRKKLTSGPALPGKLADCTAQDLNRTELFLVEGDSAGGSAKQARDREYQAIMPLKGKILNTWEVSSDEVLASQEVHDISVAIGIDPDSDDLSQLRYGKICILADADSDGLHIATLLCALFVKHFRALVKHGHVYVALPPLYRIDLGKEVYYALTEEEKEGVLEQLKRKKGKPNVQRFKGLGEMNPMQLRETTLDPNTRRLVQLTIDDEDDQRTDAMMDMLLAKKRSEDRRNWLQEKGDMAEIEV | 2.68 ± 0.1 | 4.78 ± 0.23 | 7.42 ± 0.43 | 8.4 ± 0.31 | 5.85 ± 0.4 | 6.09 ± 0.22 | 5.29 ± 1.9 | 4.41 ± 0.076 | 3.56 ± 0.24 | 3.79 ± 0.16 | 5.867 ± 0.054 | 3.96 ± 0.39
6 | MTQVAKKILVTCALPYANGSIHLGHMLEHIQADVWVRYQRMRGHEVNFICADDAHGTPIMLKAQQLGITPEQMIGEMSQEHQTDFAGFNISYDNYHSTHSEENRQLSELIYSRLKENGFIKNRTISQLYDPEKGMFLPDRFVKGTCPKCKSPDQYGDNCEVCGATYSPTELIEPKSVVSGATPVMRDSEHFFFDLPSFSEMLQAWTRSGALQEQVANKMQEWFESGLQQWDISRDAPYFGFEIPNAPGKYFYVWLDAPIGYMGSFKNLCDKRGDSVSFDEYWKKDSTAELYHFIGKDIVYFHSLFWPAMLEGSNFRKPSNLFVHGYVTVNGAKMSKSRGTFIKASTWLNHFDADSLRYYYTAKLSSRIDDIDLNLEDFVQRVNADIVNKVVNLASRNAGFINKRFDGVLASELADPQLYKTFTDAAEVIGEAWESREFGKAVREIMALADLANRYVDEQAPWVVAKQEGRDADLQAICSMGINLFRVLMTYLKPVLPKLTERAEAFLNTELTWDGIQQPLLGHKVNPFKALYNRIDMRQVEALVEASKEEVKAAAAPVTGPLADDPIQETITFDDFAKVDLRVALIENAEFVEGSDKLLRLTLDLGGEKRNVFSGIRSAYPDPQALIGRHTIMVANLAPRKMRFGISEGMVMAAGPGGKDIFLLSPDAGAKPGHQVK | 3.09 ± 0.24 | 5.54 ± 0.16 | 9.62 ± 0.28 | 11.4 ± 0.34 | 4.5 ± 0.63 | 4.18 ± 0.33 | 4.16 ± 0.055 | 4.3651 ± 0.0038 | 4.17 ± 0.25 | 4.1 ± 0.34 | 6.3 ± 0.071 | 5.51 ± 0.33
